Source: patent US20250076311A1 (Chugai, published 2025)

T1: cynomolgus monkey FcγRIIIaS extracellular domain with C-terminal His-tag (cynomolgus monkey, UniProt Q8SPW2 21-206 at identity 1.00))
T1 construct: also called cyno FcgRIIIaS; cynoFcγRIIIaS
T1 chain: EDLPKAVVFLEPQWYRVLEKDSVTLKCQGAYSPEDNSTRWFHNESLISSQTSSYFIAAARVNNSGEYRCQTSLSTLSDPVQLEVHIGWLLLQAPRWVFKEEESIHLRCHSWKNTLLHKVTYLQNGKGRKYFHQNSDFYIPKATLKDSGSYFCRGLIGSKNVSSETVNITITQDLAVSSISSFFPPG

T2: human FcγRIIaR extracellular domain with C-terminal His-tag (human, UniProt P12318 34-217)
T2 construct: also called human FcgRIIaR; FcγRIIa (type R)
T2 chain: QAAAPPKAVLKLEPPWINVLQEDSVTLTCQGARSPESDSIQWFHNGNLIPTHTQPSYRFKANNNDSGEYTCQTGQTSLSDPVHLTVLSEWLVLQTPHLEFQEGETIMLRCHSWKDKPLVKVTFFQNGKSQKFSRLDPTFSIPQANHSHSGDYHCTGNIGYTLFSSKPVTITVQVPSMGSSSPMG

T3: cynomolgus monkey FcγRIIa2 extracellular domain with C-terminal His-tag (cynomolgus monkey)
T3 construct: also called cyno FcgRIIa2; cynoFcγRIIa2
T3 chain: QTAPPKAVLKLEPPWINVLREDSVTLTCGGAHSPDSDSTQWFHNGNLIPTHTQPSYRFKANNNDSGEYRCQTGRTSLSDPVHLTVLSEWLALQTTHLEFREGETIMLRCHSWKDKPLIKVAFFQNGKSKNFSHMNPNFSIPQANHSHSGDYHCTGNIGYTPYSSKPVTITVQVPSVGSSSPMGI

T4: cynomolgus monkey FcγRIIa3 extracellular domain with C-terminal His-tag (cynomolgus monkey)
T4 construct: also called cyno FcgRIIa3; cynoFcγRIIa3
T4 chain: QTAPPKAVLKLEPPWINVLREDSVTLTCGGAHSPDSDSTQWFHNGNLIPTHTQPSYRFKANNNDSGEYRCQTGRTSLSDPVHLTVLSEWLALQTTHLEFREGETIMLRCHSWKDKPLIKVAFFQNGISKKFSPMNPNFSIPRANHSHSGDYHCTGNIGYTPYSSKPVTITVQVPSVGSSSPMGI

T5: human FcγRIIaH extracellular domain with C-terminal His-tag (human, UniProt P12318 34-217)
T5 construct: also called human FcgRIIaH; FcγRIIa (type H)
T5 sequence: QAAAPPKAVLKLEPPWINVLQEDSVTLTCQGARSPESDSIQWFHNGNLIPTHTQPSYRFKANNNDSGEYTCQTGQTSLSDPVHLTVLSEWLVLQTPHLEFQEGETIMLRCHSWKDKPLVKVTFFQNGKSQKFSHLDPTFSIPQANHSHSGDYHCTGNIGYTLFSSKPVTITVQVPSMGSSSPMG


Experiments:
[1] = target: T1, cynomolgus monkey FcγRIIIaS …; assay: SPR (Biacore), KD of SG1 / KD of variant
[2] = target: T2, human FcγRIIaR extracellular domain …; assay: SPR (Biacore), antibody captured, FcgR analyte
Experimental: (§1) The kinetic analysis of interactions between these antibodies and FcγR was carried out using BIACORE® T200 or BIACORE® 4000 (GE Healthcare). HBS-EP+ (GE Healthcare) was used as the running buffer, and the measurement temperature was set to 25° C. […] After the measurement, the antibody captured on the chip was washed off by allowing reaction with 10 mM glycine-HCl, pH1.5 and 25 mM NaOH so that the chip was regenerated and used repeatedly. The sensorgrams obtained as measurement results were analyzed by the 1:1 Langmuir binding model using the BIACORE® Evaluation Software to calculate the binding rate constant ka (L/mol/s) and dissociation rate constant kd (1/s), and the dissociation constant KD (mol/L) was calculated from these values. […] Regarding such interactions, KD values were calculated using the following 1:1 binding model described in BIACORE® T100 Software Handbook BR1006-48 Edition AE.

[3] = target: T3, cynomolgus monkey FcγRIIa2 …; assay: SPR (Biacore), KD of SG1 / KD of variant
[4] = target: T4, cynomolgus monkey FcγRIIa3 …; assay: SPR (Biacore), KD of SG1 / KD of variant
[5] = target: T1, cynomolgus monkey FcγRIIIaS …; assay: SPR (Biacore), antibody captured, FcgR analyte
Experimental: as §1

[6] = target: T5, human FcγRIIaH extracellular domain …; assay: SPR (Biacore), antibody captured, FcgR analyte
Experimental: as §1

[7] = target: T5, human FcγRIIaH extracellular domain …; assay: SPR (Biacore), KD of SG1 / KD of variant

Row | KD fold (SG1 = 1) [1] [fold] | Kd [5] [nM] | Binder | further results
1 | 0.2 |  | M103205H795-MY441/M103202L889-SK1 (antibody, human IgG1, kappa, Substitutions in EU numbering on SG1) heavy: QVTLKESGPVLVKPTETLTLTCTVSGIDLSHDDISWVRQAPGKGLEWVGIISYAGSTYYASWAKGRLTISKDTSKNQVVLTMTNMDPVDTATYYCARGVPAYSHGGDLWGQGTLVTVSSASTKGPSVFPLAPSSKSTSGGTAALGCLVKDYFPEPVTVSWNSGALTSGVHTFPAVLQSSGLYSLSSVVTVPSSSLGTQTYICNVNHKPSNTKVDKKVEPKSCDKTHTCPPCPAAELLTGPSVFLFPPKPKDTLMISRTPEVTCVVVDVSDEDPEVKFNWYVDGVEVHNAKTKPREEQYNSTYRVVSVLTVLHQDWLNGKEYKCKVSNKALPKPIEKTISKAKGQPREPQVYTLPPSREEMTKNQVSLTCLVKGFYPSDIAVEWESNGQPENNYKTTPPVLDSDGSFFLYSKLTVDKSRWQQGNVFSCSVMHEALHNHYTQKSLSLSP light: DIVMTQSPATLSLSPGERATLSCTSSQSVYHANWLSWFQQKPGQPPKLLIYWASTLAYGVPSRFSGSGSGTDFTLTISSLQPEDAATYYCAGGYGGGRYAFGQGTKVEIKRTVAAPSVFIFPPSDEQLKSGTASVVCLLNNFYPREAKVQWKVDNALQSGNSQESVTEQDSKDSTYSLSSTLTLSKADYEKHKVYACEVTHQGLSSPVTKSFNRGEC | Kd [2]: 600 nM
2 | 0.2 |  | M103205H795-MY460/M103202L889-SK1 (antibody) chain 1: QVTLKESGPVLVKPTETLTLTCTVSGIDLSHDDISWVRQAPGKGLEWVGIISYAGSTYYASWAKGRLTISKDTSKNQVVLTMTNMDPVDTATYYCARGVPAYSHGGDLWGQGTLVTVSSASTKGPSVFPLAPSSKSTSGGTAALGCLVKDYFPEPVTVSWNSGALTSGVHTFPAVLQSSGLYSLSSVVTVPSSSLGTQTYICNVNHKPSNTKVDKKVEPKSCDKTHTCPPCPEPELLTGPSVFLFPPKPKDTLMISRTPEVTCVVVDVSDEDPEVKFNWYVDGVEVHNAKTKPREEQYNSTYRVVSVLTVLHQDWLNGKEYKCKVSNKALPKPIEKTISKAKGQPREPQVYTLPPSREEMTKNQVSLTCLVKGFYPSDIAVEWESNGQPENNYKTTPPVLDSDGSFFLYSKLTVDKSRWQQGNVFSCSVMHEALHNHYTQKSLSLSP chain 2: DIVMTQSPATLSLSPGERATLSCTSSQSVYHANWLSWFQQKPGQPPKLLIYWASTLAYGVPSRFSGSGSGTDFTLTISSLQPEDAATYYCAGGYGGGRYAFGQGTKVEIKRTVAAPSVFIFPPSDEQLKSGTASVVCLLNNFYPREAKVQWKVDNALQSGNSQESVTEQDSKDSTYSLSSTLTLSKADYEKHKVYACEVTHQGLSSPVTKSFNRGEC | 
3 |  | 2800 | M103205H795-MY454/M103202L889-SK1 (antibody, human IgG1, kappa, Substitutions in EU numbering on SG1) heavy: QVTLKESGPVLVKPTETLTLTCTVSGIDLSHDDISWVRQAPGKGLEWVGIISYAGSTYYASWAKGRLTISKDTSKNQVVLTMTNMDPVDTATYYCARGVPAYSHGGDLWGQGTLVTVSSASTKGPSVFPLAPSSKSTSGGTAALGCLVKDYFPEPVTVSWNSGALTSGVHTFPAVLQSSGLYSLSSVVTVPSSSLGTQTYICNVNHKPSNTKVDKKVEPKSCDKTHTCPPCPASELLTGPSVFLFPPKPKDTLMISRTPEVTCVVVDVSDEDPEVKFNWYVDGVEVHNAKTKPREEQYNSTYRVVSVLTVLHQDWLNGKEYKCKVSNKALPKPIEKTISKAKGQPREPQVYTLPPSREEMTKNQVSLTCLVKGFYPSDIAVEWESNGQPENNYKTTPPVLDSDGSFFLYSKLTVDKSRWQQGNVFSCSVMHEALHNHYTQKSLSLSP light: DIVMTQSPATLSLSPGERATLSCTSSQSVYHANWLSWFQQKPGQPPKLLIYWASTLAYGVPSRFSGSGSGTDFTLTISSLQPEDAATYYCAGGYGGGRYAFGQGTKVEIKRTVAAPSVFIFPPSDEQLKSGTASVVCLLNNFYPREAKVQWKVDNALQSGNSQESVTEQDSKDSTYSLSSTLTLSKADYEKHKVYACEVTHQGLSSPVTKSFNRGEC | KD fold (SG1 = 1) [3]: 1.8 fold; KD fold (SG1 = 1) [4]: 2.2 fold
4 |  |  | M103205H795-MY449/M103202L889-SK1 (antibody, human IgG1, kappa, Substitutions in EU numbering on SG1) heavy: QVTLKESGPVLVKPTETLTLTCTVSGIDLSHDDISWVRQAPGKGLEWVGIISYAGSTYYASWAKGRLTISKDTSKNQVVLTMTNMDPVDTATYYCARGVPAYSHGGDLWGQGTLVTVSSASTKGPSVFPLAPSSKSTSGGTAALGCLVKDYFPEPVTVSWNSGALTSGVHTFPAVLQSSGLYSLSSVVTVPSSSLGTQTYICNVNHKPSNTKVDKKVEPKSCDKTHTCPPCPALELLTGPSVFLFPPKPKDTLMISRTPEVTCVVVDVSDEDPEVKFNWYVDGVEVHNAKTKPREEQYNSTYRVVSVLTVLHQDWLNGKEYKCKVSNKALPKPIEKTISKAKGQPREPQVYTLPPSREEMTKNQVSLTCLVKGFYPSDIAVEWESNGQPENNYKTTPPVLDSDGSFFLYSKLTVDKSRWQQGNVFSCSVMHEALHNHYTQKSLSLSP light: DIVMTQSPATLSLSPGERATLSCTSSQSVYHANWLSWFQQKPGQPPKLLIYWASTLAYGVPSRFSGSGSGTDFTLTISSLQPEDAATYYCAGGYGGGRYAFGQGTKVEIKRTVAAPSVFIFPPSDEQLKSGTASVVCLLNNFYPREAKVQWKVDNALQSGNSQESVTEQDSKDSTYSLSSTLTLSKADYEKHKVYACEVTHQGLSSPVTKSFNRGEC | Kd [6]: 98 nM
5 |  | 1900 | M103205H795-MY458/M103202L889-SK1 (antibody, human IgG1, kappa, Substitutions in EU numbering on SG1) heavy: QVTLKESGPVLVKPTETLTLTCTVSGIDLSHDDISWVRQAPGKGLEWVGIISYAGSTYYASWAKGRLTISKDTSKNQVVLTMTNMDPVDTATYYCARGVPAYSHGGDLWGQGTLVTVSSASTKGPSVFPLAPSSKSTSGGTAALGCLVKDYFPEPVTVSWNSGALTSGVHTFPAVLQSSGLYSLSSVVTVPSSSLGTQTYICNVNHKPSNTKVDKKVEPKSCDKTHTCPPCPAYELLTGPSVFLFPPKPKDTLMISRTPEVTCVVVDVSDEDPEVKFNWYVDGVEVHNAKTKPREEQYNSTYRVVSVLTVLHQDWLNGKEYKCKVSNKALPKPIEKTISKAKGQPREPQVYTLPPSREEMTKNQVSLTCLVKGFYPSDIAVEWESNGQPENNYKTTPPVLDSDGSFFLYSKLTVDKSRWQQGNVFSCSVMHEALHNHYTQKSLSLSP light: DIVMTQSPATLSLSPGERATLSCTSSQSVYHANWLSWFQQKPGQPPKLLIYWASTLAYGVPSRFSGSGSGTDFTLTISSLQPEDAATYYCAGGYGGGRYAFGQGTKVEIKRTVAAPSVFIFPPSDEQLKSGTASVVCLLNNFYPREAKVQWKVDNALQSGNSQESVTEQDSKDSTYSLSSTLTLSKADYEKHKVYACEVTHQGLSSPVTKSFNRGEC | 
6 | 0.2 |  | M103205H795-MY459/M103202L889-SK1 (antibody, Substitutions in EU numbering on SG1) heavy: QVTLKESGPVLVKPTETLTLTCTVSGIDLSHDDISWVRQAPGKGLEWVGIISYAGSTYYASWAKGRLTISKDTSKNQVVLTMTNMDPVDTATYYCARGVPAYSHGGDLWGQGTLVTVSSASTKGPSVFPLAPSSKSTSGGTAALGCLVKDYFPEPVTVSWNSGALTSGVHTFPAVLQSSGLYSLSSVVTVPSSSLGTQTYICNVNHKPSNTKVDKKVEPKSCDKTHTCPPCPDPELLTGPSVFLFPPKPKDTLMISRTPEVTCVVVDVSDEDPEVKFNWYVDGVEVHNAKTKPREEQYNSTYRVVSVLTVLHQDWLNGKEYKCKVSNKALPKPIEKTISKAKGQPREPQVYTLPPSREEMTKNQVSLTCLVKGFYPSDIAVEWESNGQPENNYKTTPPVLDSDGSFFLYSKLTVDKSRWQQGNVFSCSVMHEALHNHYTQKSLSLSP light: DIVMTQSPATLSLSPGERATLSCTSSQSVYHANWLSWFQQKPGQPPKLLIYWASTLAYGVPSRFSGSGSGTDFTLTISSLQPEDAATYYCAGGYGGGRYAFGQGTKVEIKRTVAAPSVFIFPPSDEQLKSGTASVVCLLNNFYPREAKVQWKVDNALQSGNSQESVTEQDSKDSTYSLSSTLTLSKADYEKHKVYACEVTHQGLSSPVTKSFNRGEC | KD fold (SG1 = 1) [7]: 1.6 fold
